Reference: patent US20050182242A1, “Global analysis of protein activities using proteome chips” (priority 2001, published 2005)

Experiments:
Conditions in all cases: liposome binding signal on yeast proteome chip, Cy3-streptavidin detection
PI(4)P liposomes = assay: Yeast proteome chip probed with PI(4)P liposomes
[1] = test system: phosphatidylcholine (PC) liposomes; assay: Yeast proteome chip probed with PC liposomes
Outline: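 Signal comes from Cy3- or Cy5-streptavidin recognising 1% (w/w) biotin-DHPE carried in every liposome. Liposomes were PC alone or PC containing 5% (w/w) of a single phosphoinositide, applied to arrayed GST-fusion yeast proteins for 1 h at RT.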

PI(3,4,5)P3 liposomes = assay: Yeast proteome chip probed with PI(3,4,5)P3 liposomes
PI(3)P liposomes = assay: Yeast proteome chip probed with PI(3)P liposomes
Excerpt: To identify PI-binding proteins in yeast, liposomes were used as probes because the liposome provides the most relevant physiological condition to assay the interactors. Six types of liposomes were used. Each contains phosphatidylcholine (“PC”) with 1% (w/w) N-(biotinoyl)-1,2-dihexadecanoyl-sn-glycero-3-phosphoethanolamine, triethylammonium salt (biotin DHPE). The biotinylated lipid serves as a label that can be detected by Cy3-streptavidin (21). In addition to PC, the five other liposomes contain either 5% (w/w) PI(3)P, PI(4)P, PI(3,4)P2, PI(4,5)P2, or PI(3,4,5)P3 (FIG. 3A).
The protein-liposome interaction was assayed as follows. Appropriate amounts of each lipid in chloroform were mixed and dried under nitrogen. The lipid mixture was resuspended in TBS buffer by vortexing. The liposomes were created by sonication. Blocked proteome chips were washed three to five times in PBS buffer, and the extra liquid on the glass surface was removed by tapping the slides vertically on a KIMWIPE™. 200 μl of liposome solution was added to the proteome chip and immediately covered by a hydrophobic plastic cover slip (GRACE BIO-LAB™, USA). After trapped air bubbles were removed, the chip was incubated in a humidity chamber at RT for one hour. To remove the cover slip, the chip was immersed into large volume of PBS buffer (50 ml), so that the slip would float away. The chip was then moved to a second PBS bath (>50 ml) and washed 3×5 min with shaking at RT. After removing extra liquid on the surface of the chip, about 100 μl of Cy3 or Cy5 conjugated streptavidin (PIERCE™, USA; 1:2000 to 1:4000 dilution) was added to the surface and covered by a hydrophobic plastic cover slip (GRACE BIO-LABS™, USA). The chip was incubated for greater than 30 min in the dark at RT. The chip was then washed as described above. To completely remove the liquid on the chip, the chip was spun to dryness at 1500-2000 rpm for 5-10 min at RT.
• 1. S. Fields, Y. Kohara, D. J. Lockhart, Proc. Natl. Acad. Sci. 96, 8825 (1999); A. Goffeau et al., Science 274, 563 (1996). • 2 P. Ross-Macdonald et al., Nature 402, 413 (1999); J. L., DeRisi, V. R. Iyer, P. O. Brown, Science 278, 680 (1997); E. A. Winzeler et al., Science 285, 901 (1999). P. Uetz et al., Nature 403, 623 (2000); T. Ito et al., Proc. Natl. Acad. Sci. USA. 97, 1143 (2000) • 3 H. Zhu, M. Snyder, Curr. Opin. Chem. Biol. 5, 40 (2001). • 4 M. R. Martzen et al., Science 286, 1153 (1999). • 5 H. Zhu et al., Nat. Genet. 26, 283 (2000). • 6 G. MacBeath, S. L. Schreiber, Science 289, 1760 (2000). • 7 A. Caveman, J. Cell Sci. 113, 3543 (2000). • 8 P. Arenkov et al., Anal. Biochem 278, 123 (2000). • 9 D. A. Mitchell, T. K. Marshall, R. J. Deschenes, Yeast 9, 715 (1993). The expression vector pEGH was created by inserting an RGS-HisX6 epitope tag between the GST gene and the polycloning site of pEG(KG). The yeast ORFs were cloned using the strategy described previously (5), except every step was done in a 96-well format. Plasmid DNAs confirmed by DNA sequencing were reintroduced into both yeast (Y258) and E. coli (DH5a). […] 0.1 mM calcium was present in buffers in all subsequent steps. The chip was washed three times with PBS at RT. Cy3-conjugated streptavidin (Jackson IR, USA) (1:5000 dilution) was added to the chip and incubated for 30 min at RT. After extensive washing, the chip was spun dry and scanned using a microarray scanner; the data was subsequently acquired with the GENEPIX™ array densitometry software (Axon, USA). • 12 S. S. Hook, A. R. Means, Annu. Rev. Pharmacol. Toxicol.41, 471 (2001). • 13 M. S. Cyert, R. Kunisawa, D. Kaim, J. Thorner, Proc. Natl. Acad. Sci. USA 88, 7376 (1991). • 14 D. A. Stirling, K. A. Welch, M. J. Stark, EMBO J. 13, 4329 (1994). • 15 F. Bohl, Kruse, EMBO J. 19, 5514 (2000); E. Bertrand et al., Mol. Cell 2, 437 (1998). • 16 D. C. Winter, E. Y. Choe, R. Li, Proc. Nat. Acad Sci. USA 96, 7288 (1999). • 17 C.

PI(4,5)P2 liposomes = assay: Yeast proteome chip probed with PI(4,5)P2 liposomes
PI(3,4)P2 liposomes = assay: Yeast proteome chip probed with PI(3,4)P2 liposomes

Molecule | PI(4)P (PI(4)P liposomes) | PC [1] | PI(3, 4, 5)P3 (PI(3,4,5)P3 liposomes) | PI(3)P (PI(3)P liposomes) | PI(4, 5)P2 (PI(4,5)P2 liposomes) | PI(3, 4)P2 (PI(3,4)P2 liposomes)
HIS7: yeast GST-HisX6 fusion protein on proteome chip (protein, UniProt P33734 1-552, looked up, GST-His6 fusion tag, yeast GST-HisX6 fusion protein on proteome chip) Imidazole glycerol phosphate …: MPVVHVIDVESGNLQSLTNAIEHLGYEVQLVKSPKDFNISGTSRLILPGVGNYGHFVDNLFNRGFEKPIREYIESGKPIMGICVGLQALFAGSVESPKSTGLNYIDFKLSRFDDSEKPVPEIGWNSCIPSENLFFGLDPYKRYYFVHSFAAILNSEKKKNLENDGWKIAKAKYGSEEFIAAVNKNNIFATQFHPEKSGKAGLNVIENFLKQQSPPIPNYSAEEKELLMNDYSNYGLTRRIIACLDVRTNDQGDLVVTKGDQYDVREKSDGKGVRNLGKPVQLAQKYYQQGADEVTFLNITSFRDCPLKDTPMLEVLKQAAKTVFVPLTVGGGIKDIVDVDGTKIPALEVASLYFRSGADKVSIGTDAVYAAEKYYELGNRGDGTSPIETISKAYGAQAVVISVDPKRVYVNSQADTKNKVFETEYPGPNGEKYCWYQCTIKGGRESRDLGVWELTRACEALGAGEILLNCIDKDGSNSGYDLELIEHVKDAVKIPVIASSGAGVPEHFEEAFLKTRADACLGAGMFHRGEFTVNDVKEYLLEHGLKVRMDEE | 226.45 | 193.11 | 78.07 | 20.00 | 18.73 | 
ARG1: yeast GST-HisX6 fusion protein on proteome chip (protein, UniProt P22768 1-420, looked up, GST-His6 tag, yeast GST-HisX6 fusion protein on proteome chip) Argininosuccinate synthase: MSKGKVCLAYSGGLDTSVILAWLLDQGYEVVAFMANVGQEEDFDAAKEKALKIGACKFVCVDCREDFVKDILFPAVQVNAVYEDVYLLGTSLARPVIAKAQIDVAKQEGCFAVSHGCTGKGNDQIRFELSFYALKPDVKCITPWRMPEFFERFAGRKDLLDYAAQKGIPVAQTKAKPWSTDENQAHISYEAGILEDPDTTPPKDMWKLIVDPMDAPDQPQDLTIDFERGLPVKLTYTDNKTSKEVSVTKPLDVFLAASNLARANGVGRIDIVEDRYINLKSRGCYEQAPLTVLRKAHVDLEGLTLDKEVRQLRDSFVTPNYSRLIYNGSYFTPECEYIRSMIQPSQNSVNGTVRVRLYKGNVIILGRSTKTEKLYDPTESSMDELTGFLPTDTTGFIAIQAIRIKKYGESKKTKGEELTL | −6.31 | 23.77 | −6.08 | 213.00 | 3.48 | 1.73
ERV1: yeast GST-HisX6 fusion protein on proteome chip (protein, UniProt P27882 1-189, looked up, GST-His6 tag, yeast GST-HisX6 fusion protein on proteome chip) Mitochondrial FAD-linked …: MKAIDKMTDNPPQEGLSGRKIIYDEDGKPCRSCNTLLDFQYVTGKISNGLKNLSSNGKLAGTGALTGEASELMPGSRTYRKVDPPDVEQLGRSSWTLLHSVAASYPAQPTDQQKGEMKQFLNIFSHIYPCNWCAKDFEKYIRENAPQVESREELGRWMCEAHNKVNKKLRKPKFDCNFWEKRWKDGWDE | −3.27 |  | 1.35 | 15.75 | 18.94 | 
ARO4: yeast GST-HisX6 fusion protein on proteome chip (protein, UniProt P32449 2-370, looked up, GST-His6 fusion tag, yeast GST-HisX6 fusion protein on proteome chip) Phospho-2-dehydro-3-deoxyhepto …: SESPMFAANGMPKVNQGAEEDVRILGYDPLASPALLQVQIPATPTSLETAKRGRREAIDIITGKDDRVLVIVGPCSIHDLEAAQEYALRLKKLSDELKGDLSIIMRAYLEKPRTTVGWKGLINDPDVNNTFNINKGLQSARQLFVNLTNIGLPIGSEMLDTISPQYLADLVSFGAIGARTTESQLHRELASGLSFPVGFKNGTDGTLNVAVDACQAAAHSHHFMGVTKHGVAAITTTKGNEHCFVILRGGKKGTNYDAKSVAEAKAQLPAGSNGLMIDYSHGNSNKDFRNQPKVNDVVCEQIANGENAITGVMIESNINEGNQGIPAEGKAGLKYGVSITDACIGWETTEDVLRKLAAAVRQRREVNKK | 42.24 | 28.17 | 29.25 | 87.50 | 20.47 | 34.53
PAU5: yeast GST-HisX6 fusion protein on proteome chip (protein, UniProt P43575 1-122, looked up, GST-His6 fusion tag, yeast GST-HisX6 fusion protein on proteome chip) Seripauperin-5: MVKLTSIAAGVAAIAAGASAAATTTLSQSDERVNLVELGVYVSDIRAHLAEYYSFQAAHPTETYPVEIAEAVFNYGDFTTMLTGIPADQVTRVITGVPWYSSRLKPAISSALSADGIYTIAN | 31.35 | 22.30 |  | −3.00 | −1.31 | −5.02
DTR1: yeast GST-HisX6 fusion protein on proteome chip (protein, UniProt P38125 1-572, looked up, GST-His6 tag, yeast GST-HisX6 fusion protein on proteome chip) Dityrosine transporter 1: MGSEPFQKKNLGLQINSQESGTTRSTFHSLEDLGDDVINESWDQVNQKRANIDHDVFHEHPDSSPSLSAQKAKTKEEEVAVKSSNSQSRDPSPDTQAHIPYTYFSKDQRLIIFGIIIFIGFLGPMSGNIYIPALPLLQREYDVSATTINATVSVFMAVFSVGPLFWGALADFGGRKFLYMVSLSLMLIVNILLAAVPVNIAALFVLRIFQAFASSSVISLGAGTVTDVVPPKHRGKAIAYFMMGPNMGPIIAPIVAGLILMKGNYWRWLFGFTSIMTGIALILVTALLPETLRCIVGNGDPKWGDKKDERENNESPFFEGNKISHRRLFPDIGIRKPVNNDAFFQENFPKPPKAGLTLYWKMIKCPPIIITSVSTALLFSSYYAFSVTFSYYLEHDYRFTMLEIGAAYVCPGVAMLLGSQSGGHLSDYLRSRWIKSHPKKKFPAEFRLLLNLIGILLTICGTIGYGWAIFFHYHFVVLLVFSALTAFGMTWCSNTSMTYLTELFPKRAAGTVAVSSFFRNVGAAISSAIILQLCNAMGIGWCFTGLGLCSSISLIGILYLLIFQRKYTAKEF | −4.79 | 24.07 | 13.72 | 23.00 | 3.05 | 2.83
